# Data from patent US20100322974A1, “Targeting the histone code as a bacterial strategy for selectively modulating gene expression” (priority 2005, published 2010).
# Assays:
# p38 MAP kinases = test: p38 phosphorylation in transfected HeLa cells stimulated by TNF; format: cell-based; conditions: transfected plasmid, TNF stimulation
# Protocol: IF was performed with anti-OspF antibodies.
# endogenous Erk = test: Erk phosphorylation in transfected HeLa cells stimulated by PMA; conditions: transfected expression plasmid, PMA stimulation
# [1] = tested on: histone H3 phosphorylation at Ser 10; test: H3 pS10 signal in HeLa cells infected with the ospF strain after kinase inhibitor pretreatment; format: cell-based; conditions: both inhibitors together, U0126 10 μM and SB203180 2.5 μM, 60 min pretreatment, 30 min infection
# OspF = OspF (Shigella flexneri, UniProt Q8VSP9, R19K/S66F)
# phospho Erk2-GST = test: In vitro phosphatase assay on phospho Erk2-GST (Western blot); conditions: for dephosphorylation of phospho-Erk2 substrate: purified protein, Western blot with anti phospho-Erk
# ^33P-labeled Erk2 = molecular target: T1, ^33P-labeled Erk2 (Homo sapiens, UniProt P28482); test: 33P-labeled Erk2 phosphatase assay, steady state kinetics; format: biochemical; conditions: pH 8, 30° C., 100 nM phosphatase, 10 minutes, Michaelis-Menten fit; for Km: read-out: Km of Erk2 dephosphorylation
# T1 construct: made in house
# T1 sequence (P28482 whole entry): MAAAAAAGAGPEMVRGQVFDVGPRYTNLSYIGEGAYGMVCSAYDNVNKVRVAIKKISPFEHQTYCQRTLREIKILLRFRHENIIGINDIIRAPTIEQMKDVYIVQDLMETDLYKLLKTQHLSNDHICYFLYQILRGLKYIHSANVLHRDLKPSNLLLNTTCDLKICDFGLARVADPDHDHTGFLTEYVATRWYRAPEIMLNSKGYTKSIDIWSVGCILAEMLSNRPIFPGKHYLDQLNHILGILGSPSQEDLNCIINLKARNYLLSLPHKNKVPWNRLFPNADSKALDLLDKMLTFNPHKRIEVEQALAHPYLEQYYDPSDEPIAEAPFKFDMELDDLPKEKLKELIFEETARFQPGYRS
# From the text: In vitro phosphatase assay.
# [2] = tested on: 33P-labeled Erk2 (GST-Erk2 fusion protein phosphorylated in vitro by MEK1) [GST: P08515]
# NF-κB = test: TNF-α-induced NF-κB reporter construct in Caco 2 cells; format: cell-based, human; conditions: overexpression in Caco 2 cells
# From the text: In addition to the classical MAPK-dependent target genes, OspF also repressed expression of some NF-κB-dependent chemokine genes such as IL-8. The IL-8 promoter contains an NF-κB binding site essential for expression of this gene (Hoffmann et al., 2002). Therefore, the inventors looked whether OspF interferes with the NF-κB signaling pathway.
# IL-8 promoter = test: ChIP with anti-OspF antibody at the IL-8 promoter in transfected HeLa cells; format: cell-based
# Protocol: (A) DNA isolated from sonicated cross-linked chromatin fragments used as inputs for Chlp assays run on a 2% agarose/TAE gel. (B) Cross-linked chromatin fragments were prepared from Caco 2 cells left untreated (ns) or infected with the WT or the ospF strains at the indicated time. For each time point, aliquots were immunoprecipitated with irrelevant IgG, anti-H3 methyl K9-pS10, or anti-p65 antibodies. Histograms show the results obtained by Real-Time PCR analysis using amplicon from the promoter region of IL-8. Data are expressed as relative enrichment as compared to the result obtained with the corresponding IgG that have been immunoprecipitated at the same time point. […] (C) The data are given as in figure (B) except that the aliquots were immunoprecipitated with irrelevant IgG or anti-RNAPII antibodies. […]
# To address whether MAPK-induced H3pS10 in the vicinity of the IL-8 promoter, HeLa cells expressing the plasmids encoding WT ospF, or as control, a C-terminal deletion mutant of the last 30 amino acids ospF (1-221) unable to localize within the nucleus (FIG. 7G) were processed for chromatin immunoprecipitation (ChIP) assay using the anti-OspF antibody and the enrichment of OspF at the IL-8 promoter was analyzed by Real-Time quantitative PCR.
# In unstimulated cells, no signal was detected at the IL-8 promoter (FIG. 7H). […]
# [3] = tested on: histone H3 purified from calf thymus; test: Direct dephosphorylation of histone H3 or H3 tail peptides in vitro; format: biochemical; conditions: 2 hours 30° C., even at 100 fold increased enzyme concentration
# IL-12 = test: Cytokine production in infected lungs (murine pulmonary infection, ELISA); format: in vivo, mice; conditions: lungs infected with M90T or ospF strain, 24 hours post-infection
# Protocol: The cytokine/chemokine network induced upon infection with Shigella flexneri was analyzed by comparing the profiles obtained upon infection with the invasive strain carrying the virulence plasmid (INV+) and the non-invasive, plasmidless strain (INV−). The murine model of pulmonary infection was used since it was the only valid model to analyze the specific host immune response upon Shigella infection. Following infection with INV−, a Th1 type-network (IL-12, IL-18, CCL9, CCL10, CCL13, and CCL4) was induced. In contrast, a Th2/Tr1 profile (IL-10, CCL1, CCL24 and CCL2) was induced upon infection with INV+. The difference observed was not due to the bacterial dose used for the infection, but was dependent on the presence or absence of the virulence plasmid.
# Some of these bacterial effectors are injected within the host cells by a type III secretion apparatus. Use of different bacterial mutants, has highlighted that the bacterial effectors involved in the immunomodulation were effectors secreted by the type III-secretion apparatus. Finally, OspF, a type III-secreted bacterial effector was responsible for the control of IL-12 production (FIG. 10).
# [4] = tested on: histone H3 K14 acetylation; test: Trichostatin-induced hyper acetylation on K14 in HeLa cells overexpressing OspF; format: cell-based
# From the text: A plasmid encoding myc-labelled OspF was used to overexpress OspF in HeLa cells. […] Thus, variations of the levels of phosphoacetylated histone H3 are likely to reflect the sole capacity of OspF to reduce the level of phosphorylation at Ser10.
# phospho p38-GST = test: In vitro phosphatase assay on purified phospho p38-GST; format: biochemical; conditions: 50 nM substrate
# phospho JNK1 = test: In vitro phosphatase assay on purified phospho JNK1 Histidine; format: biochemical; conditions: 50 nM substrate
# [5] = molecular target: 33P-labeled Erk2 (GST-Erk2 fusion protein phosphorylated in vitro by MEK1) [GST: P08515]; remark: listed apart in the source
# [6] = tested on: histone H3 phosphorylation at Ser 10; test: H3 pS10 induced by okadaic acid in HeLa cells overexpressing OspF (immunofluorescence); format: cell-based; conditions: 200 nM okadaic acid 3 hours
# Protocol: (A) HeLa cells were left untreated (ns) or infected with the WT or the ospF strain at the indicated time. Indirect immunofluorescence detection was performed with anti-phospho-histone H3 S10 polyclonal antibody. (B) HeLa cells were synchronized by a double thymidine block (2 mM thymidine) and left untreated (ns) or infected with the WT or the ospF strain at the indicated time. Immunoblots were probed with anti-H3 phospho S10 (H3 pS10), anti-H3 methyl K9-phospho S10 (H3 metK9-pS10), anti-H3 phospho S10 acetyl-K14 (H3 p-S10/Ac-K14), anti Histone H3 polyclonal anti-pp 38 and pErk antibodies. (C) HeLa cells were transfected with pRK5myc-OspF vector and treated with 200 nM okadaic acid for 3 hours. IF was performed with anti-myc (red) and anti-H3 methyl K9-pS10 (green) antibodies. […] (D) One micogram of calf-thymus histone (Sigma) was incubated with 300 ng of His-OspF or with 120 U of λ phosphatase for 2 hours at 30° C. Western blot was performed with an anti-metK9-pS10 antibody. (E) One micogram of peptide metK9-S10 was spotted onto a nitrocellulose membrane that was incubated with buffers, 5 μg/ml of OspF, or 2000 U/ml of lambda phosphatase for 2 hours at 30° C. Western blot was performed with an anti-metK9-pS10 antibody. (F) HeLa cells were pretreated for 60 min with either the MEK1 inhibitor U0126 (10 μM) or the p38 inhibitor SB203180 (2.5 μM) or both. […]
molecule,measurement,setting,value
myc-labelled OspF: myc labelled OspF expressed from plasmid pRK5myc-OspF,prevention of p38 phosphorylation in HeLa cells,p38 MAP kinases,prevented phosphorylation
same,ability to dephosphorylate Erk / prevent Erk phosphorylation in HeLa cells,endogenous Erk,prevented phosphorylation
His to Leu mutation at position 172: OspF with His to Leu mutation at position 172,ability to dephosphorylate Erk / prevent Erk phosphorylation in HeLa cells,endogenous Erk,retention of phosphatase activity
C1805: OspF with Cys 180 mutated into Ser (printed C1805),ability to dephosphorylate Erk / prevent Erk phosphorylation in HeLa cells,endogenous Erk,None of the mutations
C[S+]([O-])c1ccc(-c2nc(-c3ccc(F)cc3)c(-c3ccncc3)[nH]2)cc1 (centres unmarked) [SB 203180],H3 pS10 signal induced by the ospF strain,[1],fully inhibited
O=C(O)CN(CCN(CC(=O)O)CC(=O)O)CC(=O)O [EDTA],OspF activity blocked by EDTA (metal dependence),OspF,not blocked
D219: OspF with aspartate D219 mutated into asparagine,dephosphorylation of phospho-Erk2 substrate,phospho Erk2-GST,did not impair phosphatase activity
N#CC(=C(/N)Sc1ccccc1N)/C(C#N)=C(\N)Sc1ccccc1N [U0126],H3 pS10 signal induced by the ospF strain,[1],fully inhibited
"MKP1 (enzyme, UniProt P28562 1-367, looked up, species assumed) Dual specificity protein phosphatase 1: MVMEVGTLDAGGLRALLGERAAQCLLLDCRSFFAFNAGHIAGSVNVRFSTIVRRRAKGAMGLEHIVPNAELRGRLLAGAYHAVVLLDERSAALDGAKRDGTLALAAGALCREARAAQVFFLKGGYEAFSASCPELCSKQSTPMGLSLPLSTSVPDSAESGCSSCSTPLYDQGGPVEILPFLYLGSAYHASRKDMLDALGITALINVSANCPNHFEGHYQYKSIPVEDNHKADISSWFNEAIDFIDSIKNAGGRVFVHCQAGISRSATICLAYLMRTNRVKLDEAFEFVKQRRSIISPNFSFMGQLLQFESQVLAPHCSAEAGSPAMAVLDRGTSTTTVFNFPVSIPVHSTNSALSYLQSPITTSPSC",Vmax of Erk2 dephosphorylation,^33P-labeled Erk2,6.01 pM/s
same,kcat of Erk2 dephosphorylation,^33P-labeled Erk2,0.0006 s⁻¹
same,Km,^33P-labeled Erk2,0.229 µM
same,"Km (release of radioactive inorganic phosphate, Michaelis-Menten fit, 100 nM enzyme)",[2],0.229 µM
same,"Vmax (release of radioactive inorganic phosphate, Michaelis-Menten fit, 100 nM enzyme)",[2],6.01 pM/s
same,"dephosphorylation of 33P-labeled Erk2 (gel mobility in SDS-PAGE/autoradiography, phospho-Erk Western blot)",[2],Dephosphorylation of Erk2 by both enzymes was confirmed by the gel-mobility increase of the substrate
same,"kcat (release of radioactive inorganic phosphate, Michaelis-Menten fit, 100 nM enzyme)",[2],0.0006 s⁻¹
OspF phosphatase (protein) MPIKKPCLKLNLDSLNVVKSEIPQMLSANERLKNNFNILYNQIRQYPAYYFKVASNVPTYSDICQFFSVMYQGFQIVNHSGDVFIHACRENPQSKGDFVGDKFHISIAREQVPLAFQILSGLLFSEDSPIDKWKITDMNRVSQQSRVGIGAQFTLYVKSDQECSQYSALLLHKIRQFIMCLESNLLRSKIAPGEYPASDVRPEDWKYVSYRNELRSDRDGSERQEQMLREEPFYRLMIE,TNF-α-induced activation of a NF-κB reporter construct,NF-κB,did not impair
same,recruitment of OspF at the IL-8 promoter,IL-8 promoter; TNF-α stimulation,transient recruitment
same,OspF at the IL-8 promoter,IL-8 promoter; unstimulated cells,not detectable
same,dephosphorylation of pT183 and pY185 residues of Erk,"phospho Erk2-GST; 500 ng OspF, 50 ng phospho Erk2-GST, 1 hour 30° C.",dephosphorylated both Thr and Tyr residues
same,dephosphorylation of phospho-Erk2 substrate,phospho Erk2-GST,directly dephosphorylated
same,direct dephosphorylation of histone H3 and metK9-pS10 / pS10 peptides,[3],did not directly dephosphorylate
same,Vmax of Erk2 dephosphorylation,^33P-labeled Erk2,9.89 pM/s
same,kcat of Erk2 dephosphorylation,^33P-labeled Erk2,0.0001 s⁻¹
same,Km,^33P-labeled Erk2,0.204 µM
same,IL-12 production in vivo,IL-12,down regulated
same,trichostatin-induced hyper acetylation on K14,[4],did not impair
same,dephosphorylation of purified phospho p38,phospho p38-GST,directly dephosphorylated
same,dephosphorylation of purified phospho JNK1,phospho JNK1,failed to dephosphorylate
same,"Km (release of radioactive inorganic phosphate, Michaelis-Menten fit, pH 8, 30° C., 100 nM enzyme)",[5],204 nM
same,"Vmax (release of radioactive inorganic phosphate, Michaelis-Menten fit, pH 8, 30° C., 100 nM enzyme)",[5],9.89 pM s^-1
same,"kcat (release of radioactive inorganic phosphate, Michaelis-Menten fit, pH 8, 30° C., 100 nM enzyme)",[5],0.0001 s^-1
same,induction of H3 pS10 by okadaic acid,[6],efficiently prevented
